In the supplement of paper PMC12764529:
± gives the half width of the 95% confidence interval.

Experiments:
[1] = folding stability dG unfold from trypsin proteolysis; higher = more stable
Method in brief: (§1)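 Designed mini-proteins with no cysteine and under 80 residues were kept only if AlphaFold2 dimer inter-PAE was above 15. In a PA-tagged cDNA display construct, they were digested with trypsin and chymotrypsin and then sequenced. K50 was inferred by Bayesian fitting of counts, and unfolding free energy was derived per protease or combined against a sequence-predicted unfolded-state K50 and a shared folded-state K50.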

[2] = folding stability dG unfold from chymotrypsin proteolysis; higher = more stable
Method in brief: as §1

[3] = folding stability dG unfold (combined trypsin and chymotrypsin); higher = more stable
Method in brief: as §1

Sequence | folding stability dG unfold [1] [kcal/mol] | folding stability dG unfold [2] [kcal/mol] | folding stability dG unfold [3] [kcal/mol]
SAGGSAGGSAGDAEEIADEIRENMYGPDGKYVPKEVEIKEIEPPPGQLKVEIEMPPGMPISAGGSAGGSAGG [r17_519_TrROS] | 1.81 ± 0.13 | 0.954 ± 0.077 | 1.32 ± 0.16
SAGGSAGGSAGDDGSDLPVVDLKVSISPFVRPLPNGEEVTVWKVLVENPGSSSRSEFYFGSAGGSAGGSAGG [r17_59_TrMRF] | 0.337 ± 0.12 | 0.118 ± 0.19 | 0.283 ± 0.15
SAGGSAGGSAGDDNKKKPKPKIEIQPVRMTMPFPENGLRIEIDIWVIKDGNIIFMIEWYPSAGGSAGGSAGG [r11_463_TrROS] | 2.92 ± 0.12 | 3.72 ± 0.17 | 3.3 ± 0.11
SAGGSAGGSAGDEKYTLTVTIPVPKNAPVLVGAEKGYEVIDLNPDAPVEEGYITVKVEFGSAGGSAGGSAGG [r11_701_TrMRF] | -0.376 ± 0.086 | -0.833 ± 0.14 | -0.391 ± 0.15
SAGGSAGGSAGDEPNDVVKIDFTFFFEDGYMIEMDIVIVPNGNIAIEIEIEPIKPPDEGDSAGGSAGGSAGG [r11_998_TrROS] | 2.06 ± 0.39 | 1.9 ± 0.13 | 2.09 ± 0.31
SAGGSAGGSAGDFELDFEWHRTNDHVVLSNKARDPDNGKPLYISIIFDPDPGKLDISIMPSAGGSAGGSAGG [r17_242_TrROS] | 0.396 ± 0.036 | -0.858 ± 0.59 | 0.0261 ± 0.083
SAGGSAGGSAGDGINFTLDIPIEGDFELRDVYLTPLEPENRRAFFLLRYKDGPVLLTLPLSAGGSAGGSAGG [r11_1013_TrMRF] | 1.21 ± 0.12 | 0.922 ± 0.18 | 1.09 ± 0.1
SAGGSAGGSAGDIPAIPKVIFIPYPIEKIEVFEDSVVVRVIHPDGGSETIVFPDRALILGSAGGSAGGSAGG [r11_957_TrMRF] | 1.6 ± 0.042 | 1.47 ± 0.03 | 1.53 ± 0.11
SAGGSAGGSAGDKNGKPPPKIEIVPIRMSFRFPELGWWIEIDIYVIKDPAIMISISLYPYSAGGSAGGSAGG [r11_883_TrROS] | 3.61 ± 0.22 | 5.25 ± 0.17 | 4.91 ± 0.35
SAGGSAGGSAGDNFKIKIESFNIMRLPDGYVMISIKIEITVGDKPVEITIMIIIPPGAPISAGGSAGGSAGG [r17_352_TrROS] | 4.03 ± 0.15 | 5.74 ± 0.18 | 5.68 ± 0.41
SAGGSAGGSAGDPKKKPPKPILGFELAEFEITTEDGTKYKVKALIIYFPDTGTKVIFVLGSAGGSAGGSAGG [r11_1024_TrMRF] | 2.78 ± 0.13 | 4.73 ± 0.13 | 4.33 ± 0.18
SAGGSAGGSAGDTSVEYEVSVTVEVFPLPDYALVKVTLEVDYPDGSKEKVEYVFLVSPYEGSAGGSAGGSAG [r3_330_TrMRF] | 2.56 ± 0.19 | 3.35 ± 0.082 | 3.04 ± 0.1
SAGGSAGGSAGDVPPSETVTITVSSEAEKEAIKKEHPEVNLTFTEAEPPVAFDPTSDVTASAGGSAGGSAGG [r17_126_JUSTAS] | 0.842 ± 0.096 | 1.27 ± 0.15 | 1.21 ± 0.17
SAGGSAGGSAGEEEELPLVIRVRFKGPEEVEIEIEAESLEDALAAIESLPDIEEIEILPRSAGGSAGGSAGG [r11_587_TrROS_Hall] | 0.632 ± 0.034 | 1.982 ± 0.0079 | 1.61 ± 0.055
SAGGSAGGSAGEEFIKKIPPGAEVKPITPLESEGKVYVKITVKKKDENGKWTEEEFIFKVSAGGSAGGSAGG [r17_140_JUSTAS] | 1.17 ± 0.072 | 1.38 ± 0.087 | 1.28 ± 0.22
SAGGSAGGSAGEEKEYRIVVPFDSDDPEAFVRAVFDGIPPDVPIKAIDFNPELGYGVVVASAGGSAGGSAGG [r11_698_TrMRF] | 0.364 ± 0.091 | 1.07 ± 0.072 | 0.892 ± 0.11
SAGGSAGGSAGEFEILSIETEPPNGRVEIAIRFDDWVVVINFDNPNEPELYPVRPDDGIFSAGGSAGGSAGG [r17_145_TrROS] | 2.54 ± 0.19 | 2.24 ± 0.12 | 2.3 ± 0.17
SAGGSAGGSAGEIEVTVTFTGDDGYVVEVKYTFEVPEPNNPIIKKVEVKVKKLKPNEPASSAGGSAGGSAGG [r11_517_TrMRF] | 1.12 ± 0.075 | 2.63 ± 0.063 | 2.22 ± 0.23
SAGGSAGGSAGEKDLPVIEVEFPFPSSFPLPLIKKFAEPFGVKKVEFFEDGTVKVLYVLDSAGGSAGGSAGG [r11_961_TrMRF] | 0.416 ± 0.1 | 0.984 ± 0.14 | 0.806 ± 0.13
SAGGSAGGSAGEKTFVIDEVKITSVERLPDGSLRVTIEVRLPNGETLTLTLTLPPGAVLESAGGSAGGSAGG [r11_429_TrROS_Hall] | 2.84 ± 0.11 | 3.19 ± 0.042 | 3.05 ± 0.07
SAGGSAGGSAGEKTIKIKVKDKNGKTKTITLKIKNAKFKPGQKIEIVKVNKNGSLEIKLKSAGGSAGGSAGG [r11_733_TrROS_Hall] | 0.678 ± 0.059 | 1.82 ± 0.087 | 1.6 ± 0.24
SAGGSAGGSAGEKVIRFPFKSPEEIREHIKNGRPIRFPNGKPVKITKIQPYPNGWLWITVSAGGSAGGSAGG [r11_48_TrROS] | 0.89 ± 0.05 | 1.3 ± 0.12 | 1.12 ± 0.21
SAGGSAGGSAGEKVKLVITTTVTLPALDPEGGEFVGPVTFTETIVLDMNPEDAARLLAAASAGGSAGGSAGG [r17_283_TrMRF] | 1.4 ± 0.034 | 2.675 ± 0.013 | 2.23 ± 0.056
SAGGSAGGSAGENKPIKVLVFLEKEDEYYEELFEFDSPEEIEEWLKKIPKDYKVKKVIVFSAGGSAGGSAGG [r17_410_TrMRF] | 3.09 ± 0.11 | 3.95 ± 0.14 | 3.61 ± 0.16
SAGGSAGGSAGEPIKGIIRVYNPETGEVTDIELEFKTLEEALAFAASLPPTVARVEIVFASAGGSAGGSAGG [r11_25_TrMRF] | 1.6 ± 0.059 | 3.002 ± 0.03 | 2.66 ± 0.095
SAGGSAGGSAGFHIDVEVHRDDEGYVKVRVKMYMYNPDPGEPMGSFEMTIWIPPEDADKLSAGGSAGGSAGG [r11_575_TrROS] | 3.33 ± 0.14 | 3.9 ± 0.056 | 3.7 ± 0.098
